Experimental data from patent US9657059B2, “Immune system modulators” (Canimguide Therapeutics AB, priority 2013, dated 2017).

Legend:
P3028 (SEQ ID NO: 185) = P3028 (SEQ ID NO: 185) (Homo sapiens, UniProt P02768); test: PEPSCAN (rampo) ELISA: binding of His-tagged P3028 to P28R variants on chip; conditions: for rampo score / binding to P3028 compared with P28R: truncations, deletions, glycine substitutions (FIG. 29, 30)
Procedure: Based on the structure of peptide P28R, additional peptides were identified that bind to P3028. The additional binders included deletions, truncations, and or amino acid substitutions of peptide P28R. Binding of peptides to P3028 was assayed using PEPSCAN technology. PEPSCAN technology, or “rampo” assays are biochemical binding assays, details of which are provided below:
A peptide microarray screening technology was used to measure binding of P28R (SEQ ID NO: 2) and variants of P28R to P3028 (SEQ ID NO: 185). In this technology libraries of synthetic peptides are synthesized and covalently linked onto polypropylene microarray chips. The linear peptides were synthesized onto credit-card format polypropylene cards (455 peptide formats/card) as described by (Timmerman et al., 2004) using standard Fmoc-chemistry using hexamethylenediamine (HMDA) as linker and deprotection using trifluoroacetic acid (TFA) with scavengers.
The binding of His-tagged P3028 to each peptide on the card was tested in an ELISA assay. The 455-well credit card format polypropylene cards containing the covalently linked peptides were incubated with His-tagged P3028 peptide (PGE73) solution consisting of 0.5 μg/mL diluted in blocking solution (4% horse serum, 5% ovalbumin (w/v) in PBS/1% TWEEN reagent). After washing, the peptides were incubated with a monoclonal mouse anti-His-tag antibody (Novagen, 70796-3, diluted 1/1000 in the incubation buffer) and subsequently after washing with a rabbit-anti-mouse antibody peroxidase (Rampo) conjugate (Southern Biotech, 6175-05, diluted 1/1000), for one hour at 25° C. After washing, the peroxidase substrate 2,2′-azine-di-3-ethylbenzthiazoline sulfonate (ABTS) and 2 μL of 3% H2O2 were added. The binding capacity of the mAb was measured as a color development at 405 nm (optical density, OD405). The color development was quantified with a charge-coupled device (CCD)—camera and an image processing system.
The OD405-values obtained by a CCD-camera was considered as raw data values (“rampo values,” “rampo units,” or “rampo scores”). The values mostly ranged from 0 to 3000, a log scale similar to 1 to 3 of a standard 96-well plate ELISA-reader. First the CCD-camera made a picture of the card before peroxidase coloring and then again a picture after the peroxidase coloring. […] These values were copied into an excel file and labeled as a raw data file. One follow-up manipulation was allowed. Sometimes a well can contain an air-bubble resulting in a false-positive value. If manual inspection of the cards detect an air-bubble the value are set to 0 for that well.
A library of peptides tested for binding to peptide P3028 included all substitutions for each position of the peptide P28R (SEQ ID NO: 2) (i.e., 19 substitutions for each position). The results of the binding experiments are shown in FIGS. 27, 28, 29 and 30 and Table 5.1. […] P28R had rampo values ranging between 262 and 460 with a mean value of 370. […] In addition, M and S in position 7 (SEQ ID NOs: 9 and 10, respectively), and Q and M in position 11 (SEQ ID NOs: 15 and 16, respectively) all have rampo values over 700.
For each position of P28R, the rampo scores of the group of 19 different peptides containing an L-amino acid substitution were compared to the rampo score of a control sample P28R peptide (SEQ ID NO: 2) for that group. Single-amino acid substitutions having a rampo score greater than or substantially equivalent to P28R were identified. […]

P3028 = P3028 (Homo sapiens, UniProt P02768); test: PEPSCAN rampo assay: binding of P3028 to support-bound peptides, sandwich ELISA; conditions: binding of P3028 to peptide on solid phase
From the text: Based on the ability of P28R to bind the P3028 sequence/structure, unblock the LFA-1 receptor, and ameliorate the P3028 sequence/structure-dependent immunosuppression, P28R was used as a template compound to identify additional compounds that bind to and sequester P3028. Variants of the P28R structure were synthesized, and tested for the ability to bind P3028 using PEPSCAN technology (see Example 12). A library of peptides that include each genetically-coded amino acid substitution at each amino acid position of P28R (i.e., 19 substitutions for each position) was synthesized. Each peptide was affixed to a support pin, and the peptide library was incubated with P3028. The binding of the candidate inhibitors to P3028 was detected by a sandwich ELISA, where a rabbit anti-mouse peroxidase (rampo) secondary antibody was employed (see Example 12). The binding of each peptide was then assigned a rampo score (see FIG. 27). Peptide P28R had rampo values ranging between about 262 and 460 with a mean value of 370. In some embodiments, the immunoregulatory peptide inhibitor as disclosed herein, is selected for a desired P3028 binding rampo score. In some embodiments, the desired P3028 binding rampo score is greater than or equal to the rampo score of P28R. It is also contemplated that some peptides that bind to P3028 with less affinity than P28R have therapeutic application. Some peptides with binding affinities that are less than P28R, for example, may modulate signal transduction events differently than P28R by virtue of the fact that the affinity to P3028 is less. […] Accordingly, contemplated embodiments include peptides that bind with any affinity to P3028 (e.g., any one or more of the peptides provided in Table 5.1, preferably peptides that modulate the immune system (e.g., modulate, upregulate or down regulate a marker of the immune system or immunosuppression, such as reducing a P3028-mediated inhibition of immune cell proliferation, spreading, migration, or NK-cell cytotoxicity).
It is contemplated that inhibitors of any one or more of the peptides listed in Tables 1-4 can comprise modifications of the P28R (SEQ ID NO: 2) or P28 core (SEQ ID NO: 62) sequence, and further can be useful for reducing inhibition of the LFA-1 receptor, or for stimulating immune cells. To identify modification to inhibitor peptides in accordance with some embodiments herein, positional scan data was used to study the influence of substitution of different types of amino acids in each position of P28R (SEQ ID NO: 2) on the binding of P3028 (SEQ ID NO: 185). Each amino acid in the peptide sequence of P28R (SEQ ID NO: 2) was exchanged with all of the naturally occurring amino acids, and binding of P3028 (SEQ ID NO: 185) to each peptide on a solid phase chip was assessed (see, e.g. Example 36). A number of optional modifications to P28R in accordance with embodiments herein are summarized in Tables 5.3, 5.4, 5.5, 5.6, and 13. Optionally, an inhibitor peptide in accordance with some embodiments herein can comprise one or more of the modifications of Table 5.3 or Table 13. Optionally, an inhibitor peptide comprises a central core of positions 2, 5-11, and 15 as provided in Table 5.3, and the remaining position are omitted or substituted with substantially any amino acid. Optionally, an inhibitor peptide comprises a central core of positions K2, T5-S11, and E15 of SEQ ID NO: 2, and the remaining position are omitted or substituted with substantially any amino acid.
Embodiments of the invention also include immunoregulatory peptide inhibitors that have a specific affinity to P3028 sequences or structures. In some embodiments, the immunoregulatory peptide inhibitors have specific affinity to P3028 sequences or structures as measured by a rampo assay in which the immunoregulatory peptide inhibitors are affixed to a solid phase, P3028 is added, and the enzymatic activity of a rampo secondary antibody is measured so as to detect binding (see Example 12). […]

[1] = tested on: PBMCs from a healthy control; test: PBMC activation (CD69, CD71) by flow cytometry in RPMI plus 10% human AB serum; format: cell-based; conditions: 40 μg/mL; 24 hours
Procedure: FIG. 41 is a series of graphs illustrating effects of modified peptides on activation of PBMCs from healthy control person. PBMCs were incubated with the peptides (40 μg/mL) for 24 hours in RPMI plus 10% human AB serum. Activation is determined as percentage of cells with enhanced marker CD69 using flow cytometry. FIG. 41A illustrates results of two experiments (410 and 412) performed for each peptide. FIG. 41B illustrates results of two experiments (414 and 416) performed for each peptide.
FIG. 42 is a series of graphs illustrating effects of the full length peptide P28R and the 6 amino acid central sequence (32230, FFVKLS, SEQ ID NO: 62) in culture medium containing normal human AB serum. Activation is determined as percentage of cells with enhanced marker CD69 or CD71 using flow cytometry. PBMCs were incubated with the peptides (40 μg/mL) for 24 hours in RPMI plus 10% human AB serum. FIG. 42A illustrates the results of two experiments (420 and 422) performed for each peptide. FIG. 42B illustrates the results of two experiments (424 and 426) performed for each peptide.
FIG. 46 is a series of graphs illustrating Effect of modified peptides on activation of PBMCs from healthy control person. […] PBMCs were incubated with the peptides (40 μg/mL) for 48 hours in RPMI plus 10% human AB serum.
Based on the positional scan data, it is contemplated that substitutions of SEQ ID NO: 2 can be useful in accordance with some embodiments herein for binding P3028, de-blocking the LFA-1 receptor from P3028-mediated inhibition (e.g. displacing bound P3028 peptide and P3028-structure containing molecules from the LFA-1 receptor), and/or stimulating immune cells. The activity of peptide P28R (SEQ ID NO: 2) and modifications of P28R was studied in a human ex vivo model using PBMCs from a healthy control human in short term cultures, and with PBMC activation measured as a percentage of cells with enhanced CD69 (see Example 37).
As P28R (SEQ ID NO: 2) can bind to P3028 and stimulate PBMC's from healthy controls in short term cultures, for example when in a culture medium comprising RPMI plus 10% normal human AB serum (see Example 37), it is contemplated that truncations of P28R in accordance with some embodiments herein can be useful for binding to inhibitors of any one or more of the peptides listed in Tables 1-4. Truncations of P28R were assessed for their ability to activate PBMC's (see Example 38). PBMCs were incubated with the peptides (40 μg/mL) for 24 hours in RPMI plus 10% human AB serum. PBMC activation was measured as percent cells with enhanced expression of either CD69 (FIG. 42A) or CD71 (FIG. 42B) using flow cytometry. […] However, PBMCs were also incubated with the peptides in cancer sera from dogs, or in caner sera from human cancer patients (see FIG. 43). […] As such, it is contemplated that in accordance with some embodiments herein, P28R, P28 core, or combinations of these peptides are useful for stimulating immune cells in the serum of a subject that has cancer.
Effects of modified peptides on the activation of PBMCs from a healthy control person were assessed (see Example 41). PBMCs were incubated with the peptides (40 μg/mL) for 48 hours in RPMI plus 10% human AB serum, and PBMC activation was determined by flow cytometry based on the percentage of cells with enhanced marker CD69 or CD71. Peptides P28R (SEQ ID NO: 2), P28 core (peptide 32230) (SEQ ID NO: 62), 32251 ([…]) (SEQ ID NO: 592), 32814 ([…]) (SEQ ID NO: 586), 32815 ([…]) (SEQ ID NO: 595), 32665 ([…]) (SEQ ID NO: 593), and 32819 ([…](C(PEG24))) (SEQ ID NO: 594) were tested. […] Accordingly, it is contemplated herein that

Row | Substance | RAMPO Score (P3028) | further results
1 | 391 (KKLDTFFVKLSLFTER) [compound 391] | 366 | RAMPO Score (P3028 (SEQ ID NO: 185); binding of His-tagged P3028 0.5 μg/mL to chip-bound peptide, OD405 raw value): 260
2 | 396 (KKLDTFFVKLSLFTER) [compound 396] | 460 | –
3 | 398 (KKLDTFFVKLSLFTER) [compound 398] | 445 | –
4 | 399 (KKLDTFFVKLSLFTER) [compound 399] | 442 | –
5 | 400 (KKLDTFFVKLSLFTER) [compound 400] | 437 | –
6 | 403 (KKLDTFFVKLSLFTER) [compound 403] | 428 | –
7 | 406 (KKLDTFFVKLSLFTER) [compound 406] | 424 | –
8 | 408 (KKLDTFFVKLSLFTER) [compound 408] | 414 | –
9 | 414 (KKLDTFFVKLSLFTER) [compound 414] | 402 | –
10 | 427 (KKLDTFFVKLSLFTER) [compound 427] | 377 | –
11 | 428 (KKLDTFFVKLSLFTER) [compound 428] | 375 | –
12 | 430 (KKLDTFFVKLSLFTER) [compound 430] | 371 | –
13 | 442 (KKLDTFFVKLSLFTER) [compound 442] | 348 | –
14 | 476 (KKLDTFFVKLSLFTER) [compound 476] | 319 | –
15 | 487 (KKLDTFFVKLSLFTER) [compound 487] | 308 | –
16 | 516 (KKLDTFFVKLSLFTER) [compound 516] | 260 | –
17 | KKFFVKLSLFTER [SEQ ID NO: 76] | – | rampo score / binding to P3028 compared with P28R (P3028 (SEQ ID NO: 185)): comparable to, or higher than peptide P28R
18 | KKLDTFFVDLSLFTER [compound 31138] | – | PBMC activation, cells with enhanced CD69 [1]: did not stimulate
19 | KKLDTFFVKLSFTER [SEQ ID NO: 68] | – | rampo score / binding to P3028 compared with P28R (P3028 (SEQ ID NO: 185)): comparable to, or higher than peptide P28R
20 | KKLDTFFVKLSLFTFR [compound 30685] | – | PBMC activation, cells with enhanced CD69 [1]: did not stimulate
21 | KKLDTFFVNLSLFTER [compound 31136] | – | PBMC activation, cells with enhanced CD69 [1]: did not stimulate
22 | KKLDTFVKLSLFTER [SEQ ID NO: 65] | – | rampo score / binding to P3028 compared with P28R (P3028 (SEQ ID NO: 185)): comparable to, or higher than peptide P28R
23 | KKLTFFVKLSLFTER [SEQ ID NO: 64] | – | rampo score / binding to P3028 compared with P28R (P3028 (SEQ ID NO: 185)): comparable to, or higher than peptide P28R
24 | KSLDTFFVKLSLFTER [compound 30864] | – | PBMC activation, cells with enhanced CD69 [1]: did not stimulate
